Key:
Conditions in all cases: both partners purified
[1] = target: T1, CgnC (Chondromyces crocatus CM c5); assay: SEC; size-exclusion chromatography of the single proteins in solution
T1 chain: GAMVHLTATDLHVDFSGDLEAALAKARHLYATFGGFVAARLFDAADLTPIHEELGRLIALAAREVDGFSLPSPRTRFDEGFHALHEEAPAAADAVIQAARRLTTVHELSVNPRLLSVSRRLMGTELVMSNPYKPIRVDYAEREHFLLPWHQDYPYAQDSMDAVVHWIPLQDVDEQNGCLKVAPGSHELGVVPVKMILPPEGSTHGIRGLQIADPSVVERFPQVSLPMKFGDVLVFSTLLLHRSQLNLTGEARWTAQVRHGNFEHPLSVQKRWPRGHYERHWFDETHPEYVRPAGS

[2] = target: T2, CgnB (Chondromyces crocatus CM c5); assay: MST; microscale thermophoresis in the presence of a constant, large excess of CgnE (250 µM)
T2 construct: CgnB of the crocagin BGC of Chondromyces crocatus CM c5; Construct details are in the Supplementary Methods; source: purified (HisTrap, His-SUMO removed with TEV protease, Superdex 200)

[3] = target: T2, CgnB; assay: MST; microscale thermophoresis of two components; which one was titrated is told only in Fig. 3c
[4] = target: T3, CgnE (Chondromyces crocatus CM c5); assay: as above
T3 construct: CgnE of the crocagin BGC of Chondromyces crocatus CM c5; Construct details are in the Supplementary Methods; source: purified (HisTrap, His-SUMO removed with TEV protease, Superdex 200)

[5] = target: T4, CgnE in the presence of CgnA (400 µM) (Chondromyces crocatus CM c5); assay: MST; microscale thermophoresis in the presence of CgnA (400 µM)
T4 construct: CgnE of Chondromyces crocatus CM c5, as m4; CgnA of Chondromyces crocatus CM c5, 21 amino acids, as m1; also called CgnA-CgnE; source: purified CgnE mixed with 400 µM CgnA

[6] = target: T5, CgnB in the presence of CgnA (400 µM) (Chondromyces crocatus CM c5); assay: as above
T5 construct: CgnB of Chondromyces crocatus CM c5, as m2; CgnA of Chondromyces crocatus CM c5, 21 amino acids, as m1; also called CgnA-CgnB; source: purified CgnB mixed with 400 µM CgnA

B1: CgnC (enzyme)
chain: T1 chain
modifications: sequence from Supplementary Table 8 (the excerpt mark inside it is read as contiguous); N-terminal GA is a cloning remnant; dimer by size-exclusion chromatography / sequence from Supplementary Table …
- stoichiometry N [1]: 2

B2: CgnC in the presence of a constant, large excess (250 µM) of CgnE (complex)
chain 1: T1 chain
chain 2: GMGGRRTIGIRSGEGAIMNASDFYALLRGRGMPVVVDDAEAAAVVSELGFRTVPFEAFDFDSPSEDPALVIVAQMGNVDALHGLWERSGTPLMHLALAKFDGGLSRLRAGLARVLAVDTDAALKRRAEAYEQLFSSASVEIASGEGVLRCHIGDEVEVGNCGDTLEQGFLYSVAEFLEASVVNLEGERSTFWVEGELPFDGFIHLSNSAALKERWGGMLDEFMRRSREGANLVRFADNVIDRLVVGGVDVTSALAGLSQGEERGMAATEFGLGCADAEAAEPFGVNSLLHKSAGGAYIGIGKGLRIPHIDFIARGATIRFIPAAEG
modifications: CgnC is a dimer and CgnE a monomer in solution when alone; stoichiometry of the complex is not given
- Kd [2]: 28 µM

B3: CgnC (enzyme)
chain: T1 chain
modifications: sequence from Supplementary Table 8 (the excerpt mark inside it is read as contiguous); N-terminal GA is a cloning remnant; dimer by size-exclusion chromatography
- Kd [3]: ~6 µM
- Kd [4]: ~1 µM
- fold increase of the CgnC–CgnE affinity on addition of CgnA (400 µM) [5]: 2 fold
- Kd [6]: ~0.1 µM

Binder: MKKTIKQISAGDRSKKGN [CgnA leader peptide (CgnA^LP)]
- fold reduction in affinity compared to CgnA [3]: 8 fold
- Kd [4]: 514 µM

— paper PMC10070186, “Unusual peptide-binding proteins guide pyrroloindoline alkaloid formation in crocagin biosynthesis” (Nature Chemistry, 2023)
